# From article PMC3764422, “A model of yeast glycolysis based on a consistent kinetic characterisation of all its enzymes” (Febs Letters, 2013)
# B1: Gpm1p (Saccharomyces cerevisiae S288C) (protein)
# chain: PKLVLVRHGQSEWNEKNLFTGWVDVKLSAKGQQEAARAGELLKEKKVYPDVLYTSKLSRAIQTANIALEKADRLWIPVNRSWRLNERHYGDLQGKDKAETLKKFGEEKFNTYRRSFDVPPPPIDASSPFSQKGDERYKYVDPNVLPETESLALVIDRLLPYWQDVIAKDLLSGKTVMIAAHGNSLRGLVKHLEGISDADIAKLNIPTGIPLVFELDENLKPSKPSYYLDPEAAAAGAAAVANQGKK
# notes: tagged full-length ORF, expressed in and purified from S. cerevisiae
# B2: Tdh3p (Saccharomyces cerevisiae S288C) (protein)
# chain: VRVAINGFGRIGRLVMRIALSRPNVEVVALNDPFITNDYAAYMFKYDSTHGRYAGEVSHDDKHIIVDGKKIATYQERDPANLPWGSSNVDIAIDSTGVFKELDTAQKHIDAGAKKVVITAPSSTAPMFVMGVNEEKYTSDLKIVSNASCTTNCLAPLAKVINDAFGIEEGLMTTVHSLTATQKTVDGPSHKDWRGGRTASGNIIPSSTGAAKAVGKVLPELQGKLTGMAFRVPTVDVSVVDLTVKLNKETTYDEIKKVVKAAAEGKLKGVLGYTEDAVVSSDFLGDSHSSIFDASAGIQLSPKFVKLVSWYDNEYGYSTRVVDLVEHVAKA
# notes: as for B1
# B3: Eno2p (Saccharomyces cerevisiae S288C) (protein)
# chain: MAVSKVYARSVYDSRGNPTVEVELTTEKGVFRSIVPSGASTGVHEALEMRDEDKSKWMGKGVMNAVNNVNNVIAAAFVKANLDVKDQKAVDDFLLSLDGTANKSKLGANAILGVSMAAARAAAAEKNVPLYQHLADLSKSKTSPYVLPVPFLNVLNGGSHAGGALALQEFMIAPTGAKTFAEAMRIGSEVYHNLKSLTKKRYGASAGNVGDEGGVAPNIQTAEEALDLIVDAIKAAGHDGKVKIGLDCASSEFFKDGKYDLDFKNPESDKSKWLTGVELADMYHSLMKRYPIVSIEDPFAEDDWEAWSHFFKTAGIQIVADDLTVTNPARIATAIEKKAADALLLKVNQIGTLSESIKAAQDSFAANWGVMVSHRSGETEDTFIADLVVGLRTGQIKTGAPARSERLAKLNQLLRIEEELGDKAVYAGENFHHGDKL
# notes: N-terminally tagged full-length ORF, expressed in and purified from S. cerevisiae, assayed fresh
# B4: Tdh1p (Saccharomyces cerevisiae S288C) (protein)
# chain: MIRIAINGFGRIGRLVLRLALQRKDIEVVAVNDPFISNDYAAYMVKYDSTHGRYKGTVSHDDKHIIIDGVKIATYQERDPANLPWGSLKIDVAVDSTGVFKELDTAQKHIDAGAKKVVITAPSSSAPMFVVGVNHTKYTPDKKIVSNASCTTNCLAPLAKVINDAFGIEEGLMTTVHSMTATQKTVDGPSHKDWRGGRTASGNIIPSSTGAAKAVGKVLPELQGKLTGMAFRVPTVDVSVVDLTVKLEKEATYDQIKKAVKAAAEGPMKGVLGYTEDAVVSSDFLGDTHASIFDASAGIQLSPKFVKLISWYDNEYGYSARVVDLIEYVAKA
# notes: as for B1
# B5: Pdc1p (Saccharomyces cerevisiae S288C) (protein)
# chain: SEITLGKYLFERLKQVNVNTVFGLPGDFNLSLLDKIYEVEGMRWAGNANELNAAYAADGYARIKGMSCIITTFGVGELSALNGIAGSYAEHVGVLHVVGVPSISAQAKQLLLHHTLGNGDFTVFHRMSANISETTAMITDIATAPAEIDRCIRTTYVTQRPVYLGLPANLVDLNVPAKLLQTPIDMSLKPNDAESEKEVIDTILALVKDAKNPVILADACCSRHDVKAETKKLIDLTQFPAFVTPMGKGSIDEQHPRYGGVYVGTLSKPEVKEAVESADLILSVGALLSDFNTGSFSYSYKTKNIVEFHSDHMKIRNATFPGVQMKFVLQKLLTTIADAAKGYKPVAVPARTPANAAVPASTPLKQEWMWNQLGNFLQEGDVVIAETGTSAFGINQTTFPNNTYGISQVLWGSIGFTTGATLGAAFAAEEIDPKKRVILFIGDGSLQLTVQEISTMIRWGLKPYLFVLNNDGYTIEKLIHGPKAQYNEIQGWDHLSLLPTFGAKDYETHRVATTGEWDKLTQDKSFNDNSKIRMIEIMLPVFDAPQNLVEQAKLTAATNAKQ
# notes: tagged full-length ORF, expressed in and purified from S. cerevisiae, assayed freshly purified
# B6: Glk1p (Saccharomyces cerevisiae S288C) (protein)
# chain: SFDDLHKATERAVIQAVDQICDDFEVTPEKLDELTAYFIEQMEKGLAPPKEGHTLASDKGLPMIPAFVTGSPNGTERGVLLAADLGGTNFRICSVNLHGDHTFSMEQMKSKIPDDLLDDENVTSDDLFGFLARRTLAFMKKYHPDELAKGKDAKPMKLGFTFSYPVDQTSLNSGTLIRWTKGFRIADTVGKDVVQLYQEQLSAQGMPMIKVVALTNDTVGTYLSHCYTSDNTDSMTSGEISEPVIGCIFGTGTNGCYMEEINKITKLPQELRDKLIKEGKTHMIINVEWGSFDNELKHLPTTKYDVVIDQKLSTNPGFHLFEKRVSGMFLGEVLRNILVDLHSQGLLLQQYRSKEQLPRHLTTPFQLSSEVLSHIEIDDSTGLRETELSLLQSLRLPTTPTERVQIQKLVRAISRRSAYLAAVPLAAILIKTNALNKRYHGEVEIGCDGSVVEYYPGFRSMLRHALALSPLGAEGERKVHLKIAKDGSGVGAALCALVA
# notes: tagged full-length ORF (mostly C-terminal tag, yeast ORF/GST/TAP collections), expressed in and purified from S. cerevisiae
# B7: Pdc6p (Saccharomyces cerevisiae S288C) (protein)
# chain: SEITLGKYLFERLKQVNVNTIFGLPGDFNLSLLDKIYEVDGLRWAGNANELNAAYAADGYARIKGLSVLVTTFGVGELSALNGIAGSYAEHVGVLHVVGVPSISAQAKQLLLHHTLGNGDFTVFHRMSANISETTSMITDIATAPSEIDRLIRTTFITQRPSYLGLPANLVDLKVPGSLLEKPIDLSLKPNDPEAEKEVIDTVLELIQNSKNPVILSDACASRHNVKKETQKLIDLTQFPAFVTPLGKGSIDEQHPRYGGVYVGTLSKQDVKQAVESADLILSVGALLSDFNTGSFSYSYKTKNVVEFHSDYVKVKNATFLGVQMKFALQNLLKVIPDVVKGYKSVPVPTKTPANKGVPASTPLKQEWLWNELSKFLQEGDVIISETGTSAFGINQTIFPKDAYGISQVLWGSIGFTTGATLGAAFAAEEIDPNKRVILFIGDGSLQLTVQEISTMIRWGLKPYLFVLNNDGYTIEKLIHGPHAEYNEIQTWDHLALLPAFGAKKYENHKIATTGEWDALTTDSEFQKNSVIRLIELKLPVFDAPESLIKQAQLTAATNAKQ
# notes: as for B5
# B8: Pgk1p (Saccharomyces cerevisiae S288C) (protein)
# chain: SLSSKLSVQDLDLKDKRVFIRVDFNVPLDGKKITSNQRIVAALPTIKYVLEHHPRYVVLASHLGRPNGERNEKYSLAPVAKELQSLLGKDVTFLNDCVGPEVEAAVKASAPGSVILLENLRYHIEEEGSRKVDGQKVKASKEDVQKFRHELSSLADVYINDAFGTAHRAHSSMVGFDLPQRAAGFLLEKELKYFGKALENPTRPFLAILGGAKVADKIQLIDNLLDKVDSIIIGGGMAFTFKKVLENTEIGDSIFDKAGAEIVPKLMEKAKAKGVEVVLPVDFIIADAFSADANTKTVTDKEGIPAGWQGLDNGPESRKLFAATVAKAKTIVWNGPPGVFEFEKFAAGTKALLDEVVKSSAAGNTVIIGGGDTATVAKKYGVTDKISHVSTGGGASLELLEGKELPGVAFLSEKK
# notes: as for B1
# B9: Tdh2p (Saccharomyces cerevisiae S288C) (protein)
# chain: VRVAINGFGRIGRLVMRIALQRKNVEVVALNDPFISNDYSAYMFKYDSTHGRYAGEVSHDDKHIIVDGHKIATFQERDPANLPWASLNIDIAIDSTGVFKELDTAQKHIDAGAKKVVITAPSSTAPMFVMGVNEEKYTSDLKIVSNASCTTNCLAPLAKVINDAFGIEEGLMTTVHSMTATQKTVDGPSHKDWRGGRTASGNIIPSSTGAAKAVGKVLPELQGKLTGMAFRVPTVDVSVVDLTVKLNKETTYDEIKKVVKAAAEGKLKGVLGYTEDAVVSSDFLGDSNSSIFDAAAGIQLSPKFVKLVSWYDNEYGYSTRVVDLVEHVAKA
# notes: as for B1
# B10: Eno1p (Saccharomyces cerevisiae S288C) (protein)
# chain: AVSKVYARSVYDSRGNPTVEVELTTEKGVFRSIVPSGASTGVHEALEMRDGDKSKWMGKGVLHAVKNVNDVIAPAFVKANIDVKDQKAVDDFLISLDGTANKSKLGANAILGVSLAASRAAAAEKNVPLYKHLADLSKSKTSPYVLPVPFLNVLNGGSHAGGALALQEFMIAPTGAKTFAEALRIGSEVYHNLKSLTKKRYGASAGNVGDEGGVAPNIQTAEEALDLIVDAIKAAGHDGKIKIGLDCASSEFFKDGKYDLDFKNPNSDKSKWLTGPQLADLYHSLMKRYPIVSIEDPFAEDDWEAWSHFFKTAGIQIVADDLTVTNPKRIATAIEKKAADALLLKVNQIGTLSESIKAAQDSFAAGWGVMVSHRSGETEDTFIADLVVGLRTGQIKTGAPARSERLAKLNQLLRIEEELGDNAVFAGENFHHGDKL
# notes: tagged full-length ORF, expressed in and purified from S. cerevisiae, assayed immediately after purification
# B11: Pdc5p (Saccharomyces cerevisiae S288C) (protein)
# chain: MSEITLGKYLFERLSQVNCNTVFGLPGDFNLSLLDKLYEVKGMRWAGNANELNAAYAADGYARIKGMSCIITTFGVGELSALNGIAGSYAEHVGVLHVVGVPSISSQAKQLLLHHTLGNGDFTVFHRMSANISETTAMITDIANAPAEIDRCIRTTYTTQRPVYLGLPANLVDLNVPAKLLETPIDLSLKPNDAEAEAEVVRTVVELIKDAKNPVILADACASRHDVKAETKKLMDLTQFPVYVTPMGKGAIDEQHPRYGGVYVGTLSRPEVKKAVESADLILSIGALLSDFNTGSFSYSYKTKNIVEFHSDHIKIRNATFPGVQMKFALQKLLDAIPEVVKDYKPVAVPARVPITKSTPANTPMKQEWMWNHLGNFLREGDIVIAETGTSAFGINQTTFPTDVYAIVQVLWGSIGFTVGALLGATMAAEELDPKKRVILFIGDGSLQLTVQEISTMIRWGLKPYIFVLNNNGYTIEKLIHGPHAEYNEIQGWDHLALLPTFGARNYETHRVATTGEWEKLTQDKDFQDNSKIRMIEVMLPVFDAPQNLVKQAQLTAATNAKQ
# notes: as for B5
# Key:
# Assay in all cases: purified protein
# Format in all cases: biochemical, Saccharomyces cerevisiae
# Conditions in all cases: standardised reaction buffer, 30 °C
# [1] = substrate: O=C(O)[C@@H](CO)OP(=O)(O)O
# [2] = substrate: O=C[C@H](O)COP(=O)(O)O
# [3] = substrate: CC(=O)C(=O)O
# [4] = substrate: Nc1ncnc2c1ncn2[C@@H]1O[C@H](COP(=O)(O)OP(=O)(O)OP(=O)(O)O)[C@@H](O)[C@H]1O
# [5] = substrate: O=C(O)[C@H](O)COP(=O)(O)O
# [6] = direction with ATP as co-substrate
protein,measurement,setting,value
B1,Km,[1]; reverse reaction (P2G to P3G),1.41 mM
same,kcat,[1]; reverse reaction (P2G to P3G),400 s⁻¹
B2,Km,[2],0.423 (SEM 9.2%) mM
same,kcat,[2],18.2 s⁻¹
B3,Km,[1],0.104 mM
same,kcat,[1],19.9 s⁻¹
B4,Km,[2],0.495 (SEM 7.5%) mM
same,kcat,[2],19.1 s⁻¹
B5,Km,[3],8.5 (SEM 10%) mM
same,kcat,[3],12.1 s⁻¹
B6,Km,[4],0.865 mM
same,kcat,[4],0.0721 s⁻¹
B7,Km,[3],2.92 mM
same,kcat,[3],9.21 s⁻¹
B8,Km,[5]; [6],4.58 mM
same,kcat,[5]; [6],58.6 s⁻¹
B9,Km,[2],0.77 mM
same,kcat,[2],8.63 s⁻¹
B10,Km,[1],0.043 (SEM 10%) mM
same,kcat,[1],7.6 s⁻¹
same,kcat,[5]; product PEP,5.07 s⁻¹
B11,Km,[3],7.08 (SEM 5.7%) mM
same,kcat,[3],10.3 s⁻¹
